For data set [1] the following is noted: rats, cited from earlier work.
For data set [2] the following is noted: cited from earlier work.
For data set [3] the following is noted: 17-BMP after BDP administration, estimated; cited from earlier work.
A further data set has as its target T1, glucocorticoid receptor (Homo sapiens, UniProt P04150).
T1 sequence (P04150 1-777): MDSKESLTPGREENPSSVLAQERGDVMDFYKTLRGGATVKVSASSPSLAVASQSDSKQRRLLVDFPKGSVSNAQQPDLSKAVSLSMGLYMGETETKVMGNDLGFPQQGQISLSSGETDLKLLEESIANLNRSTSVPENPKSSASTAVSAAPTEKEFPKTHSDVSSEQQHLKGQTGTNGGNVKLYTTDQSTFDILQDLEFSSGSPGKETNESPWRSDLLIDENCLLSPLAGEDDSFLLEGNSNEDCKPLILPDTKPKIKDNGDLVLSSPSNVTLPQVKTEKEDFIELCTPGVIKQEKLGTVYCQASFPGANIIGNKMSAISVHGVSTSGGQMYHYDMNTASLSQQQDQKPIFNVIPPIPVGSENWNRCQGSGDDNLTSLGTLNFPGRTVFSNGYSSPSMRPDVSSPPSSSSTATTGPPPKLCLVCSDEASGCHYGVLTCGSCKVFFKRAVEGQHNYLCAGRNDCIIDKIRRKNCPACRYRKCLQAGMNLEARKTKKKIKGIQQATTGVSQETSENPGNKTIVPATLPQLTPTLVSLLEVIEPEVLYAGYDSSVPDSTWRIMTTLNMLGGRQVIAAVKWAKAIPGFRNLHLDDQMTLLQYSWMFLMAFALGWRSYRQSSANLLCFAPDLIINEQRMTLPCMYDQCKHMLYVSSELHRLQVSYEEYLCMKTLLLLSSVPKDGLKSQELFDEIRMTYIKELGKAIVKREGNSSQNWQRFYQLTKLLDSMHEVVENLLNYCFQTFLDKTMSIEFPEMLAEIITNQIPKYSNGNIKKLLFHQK
As to conditions: as fraction of the binding affinity of dexamethasone; cited from earlier work.

Data set [4] relates to dogs given high dose total body irradiation (TBI). Put plainly: Survival of dogs after high dose TBI (GI radiation syndrome) with autologous marrow and supportive care. Format: in vivo, dog. As to conditions: TBI dose giving >80% lethality; monitored up to 30 days; KGF 100 μg/kg/day iv or BDP 4 mg/day from 2 hours after TBI until GI recovery. The text has this: The dog is a particularly suitable animal model for studying radiations damage to epithelial tissue. […] To evaluate the response to TBI given at the high dose rate of 0.4 Gy/min or 0.7 Gy/min, treatment groups were given single-fraction 6, 7, 8 or 10 Gy TBI and received previously cryopreserved autologous marrow infusion upon completion of the TBI and standard supportive care. At doses of TBI below 8 Gy, all dogs survived. After 8 Gy TBI, 5 of 9 dogs died and after 10 Gy TBI, 9 of 9 dogs died from GI radiation syndrome. All deaths occurred between days 4 to day 6 after 10 Gy TBI. All deaths were attributable due to GI radiation toxicity with severe gut hemorrhage and intestinal crypt damage, as well as denudation of gut epithelium and focal necrosis in the intestines. Despite antibiotic treatment, blood cultures obtained near the time of death were positive for gram negative organisms in 4 dogs, consistent with entry of pathogens through the GI tract. […]
Dogs were monitored for survival up to 30 days after initiation of TBI (primary endpoint of the experiment). […] Dogs were also followed with daily CBCs until recovery and assessed for immune function recovery. […]

For data set [5], the system named is dogs given total body irradiation (TBI). The data set can be described thus: Survival and hematopoietic recovery of dogs after TBI with cytokine treatment. Format: in vivo, dog. How it is done:
Supportive care consisted of the following: (a) intravenous antibiotics, ampicillin and amikacin and oral nonreabsorbable polymixin/neomycin administered without change in drug regimen until recovery of absolute neutrophil count (ANC)>1000/μL; (b) transfusions with irradiated whole blood (50 mL blood per transfusion) for platelet counts below 10,000/μL; and (c) subcutaneous fluids 20 ml/kg given daily for the first 5 days after TBI.
After TBI exposure, all dogs were treated with an oral fluoroquinolone, enrofloxacin. Core body temperature was measured at least twice daily. If fever developed or when ANC falls below <100/μL, dogs are empirically treated with the combination of intravenous third-generation cephalosporin (ceftazidime) and the aminoglycoside amikacin. Blood cultures are obtained when dogs develop fever and antibiotic treatment is adjusted based on blood culture results. If blood culture negative neutropenic fever persists for 48 hours, or if clinical condition objectively worsens, additional empiric antibiotic treatment with metronidazole and vancomycin is added. Although the new antibiotic regimen is more complicated compared with the historical treatment, it reflects improved broad spectrum coverage against gram negative, gram positive and anaerobic pathogens. Furthermore, blood transfusion support is more intensive now with larger volume of whole blood transfusion, based on body weight with 10-15 mL blood/kg/transfusion. The use of intravenous fluid support (10-30 mL/kg/day Lactated Ringers solution) is extended for at least 14 additional days until there is full recovery of oral food intake.
New supportive care measures have shown a significant improvement in survival after TBI. Following 4 Gy TBI (0.07 Gy/min, Varian Clinac 4/80 linear accelerator source), 4 of 4 dogs survived and recovered hematopoiesis with a median time to ANC and platelet recovery of 27 and 41 days, respectively. ANC recovery was defined as the first day of sustained neutrophil counts >500/μL and platelet recovery was defined as the first day of transfusion-independent sustained recovery of >40,000/μL. After 5 Gy TBI, 3 of 6 dogs survived with supportive care only. Deaths occurred at days 14, 15 and 21, respectively, after TBI and were due to neutropenic sepsis or pneumonia and not from the GI radiation syndrome. Among surviving dogs, the median time to ANC and platelet recovery was 29 and 44 days, respectively. After 6 Gy TBI, 5 of 6 dogs survived given supportive care only. One death occurred on day 22 due to neutropenic sepsis. The median time to ANC and platelet recovery was 34 and 74 days, respectively. After 7 Gy TBI and supportive care only, 5 of 6 dogs survived, with one death on day 22 due to neutropenic sepsis. […] As of Apr. 18, 2007, the remaining three dogs in this cohort remain transfusion-dependent at 66 to 95 days after TBI. […] Because of the improved survival of dogs after TBI given optimal supportive care in the current AI-066498 studies, we have not yet reached the 99% lethal dose of TBI threshold.
Although supportive care without cytokine support results in improved survival, cytokine treatment given after TBI aimed at recovery of the hematopoietic system also improves outcome and decreased the need for prolonged, intensive (and expensive) supportive care. Historical results in the dog model by our research group included studies which established that both recombinant canine (rc) and recombinant human (rh) G-CSF given after an otherwise lethal dose of 4 Gy TBI prevented death from radiation induced cytopenia. In the 1980's and early 1990's, after 4 Gy TBI and supportive care alone, only 1 of 28 dogs survived with recovery of hematopoiesis. In contrast, when G-CSF was given daily for 21 days after 4 Gy TBI, 8 of 10 dogs survived. […] These studies helped to establish the current clinical guidelines for the treatment of victims of radiation accidents. […]

Data set [6] concerns oral mucositis after high-dose radiation. As to conditions: cited from earlier work.
A further data set concerns non-irradiated dogs. Put plainly: rhKGF in non-irradiated dogs, necropsy of gut. The data set is classed as in vivo, dog. To be noted: rhKGF 100 μg/kg/day for 14 and 21 days. How it is done:
Three non-irradiated dogs were given rhKGF 100 μg/kg/day for 7, 14 and 21 days, respectively. Twenty-four hours after the last dose of KGF, dogs were euthanized and underwent complete necropsy.

Turning to `CCC(=O)O[C@]1(C(=O)CO)[C@@H](C)C[C@H]2[C@@H]3CCC4=CC(=O)C=C[C@]4(C)[C@@]3(Cl)[C@@H](O)C[C@@]21C` [17-BMP, 17-beclomethasone mono-propionate], the “presence in plasma following oral administration of 3H-BDP” value in data set [1] was “found in the plasma”. In data set [2], the “half-life in simulated intestinal fluid” value was 720 min. Also, the absolute oral bioavailability in data set [3] is on record as 21-41%.
In the case of `CCC(=O)OCC(=O)[C@@]1(O)[C@@H](C)C[C@H]2[C@@H]3CCC4=CC(=O)C=C[C@]4(C)[C@@]3(Cl)[C@@H](O)C[C@@]21C` [21-BMP], the “glucocorticoid receptor binding affinity, in words” value on glucocorticoid receptor was “no apparent affinity”.
On to beclomethasone 17,21-dipropionate [BDP], for which, in data set [1] (intravenous administration of 3H-BDP), the “half-life of unchanged BDP in plasma” value was 3 to 4 min. Moreover, in data set [1], the “presence in plasma following oral administration of 3H-BDP” value is reported as “not detected”. The “half-life in simulated intestinal fluid” value in data set [2] is 2.1 min. The “survival after TBI” value in data set [4] is on record as “greater than 70%”.

B1: G-CSF: cytokine granulocyte colony stimulating factor, recombinant canine or human (protein, UniProt P09919 31-207, looked up)
Granulocyte …: TPLGPASSLPQSFLLKCLEQVRKIQGDGAALQEKLVSECATYKLCHPEELVLLGHSLGIPWAPLSSCPSQALQLAGCLSQLHSGLFLYQGLLQALEGISPELGPTLDTLQLDVADFATTIWQQMEELGMAPALQPTQGAMPAFASAFQRRAGGVLVASHLQSFLEVSYRVLRHLAQP
In the case of B1, the survival in data set [5] (4 Gy TBI, G-CSF daily for 21 days, historical results, supportive care alone 1 of 28) was 8 of 10; in data set [5] (5 Gy TBI, 10 μg/kg/day starting 2 hours after irradiation, new supportive care) it was 6 of 6; in data set [5] (5 Gy TBI, G-CSF, historical results), 3 of 10; in data set [5] (6 Gy TBI, G-CSF 10 μg/kg/day, FL 100 μg/kg/day), 5 of 6. Moreover, the “median time to ANC recovery” value in data set [5] (5 Gy TBI, ANC >500/μL) was 20 days; in data set [5] (6 Gy TBI), 26 days. Moreover, the “median time to platelet recovery” value came out at 44 days in data set [5] (5 Gy TBI, platelets >40,000/μL) and 61 days in data set [5] (6 Gy TBI).

B2: KGF: keratinocyte growth factor, recombinant human; binds the KGF receptor on epithelial tissues (protein, UniProt P21781 32-194, looked up)
Fibroblast growth factor 7: CNDMTPEQMATNVNCSSPERHTRSYDYMEGGDIRVRRLFCRTQWYLRIDKRGKVKGTQEMKNNYNIMEIRTVAVGIVAIKGVESEFYLAMNKEGKLYAKKECNEDCNFKELILENHYNTYASAKWTHNGGEMFVALNQKGIPVRGKKTKKEQKTAHFLPMAIT
With B2, in data set [6] (rhKGF 60 μg/kg/day for 3 days prior to 12 Gy fractionated TBI and 3 days after autologous PBSC infusion, placebo 10.4 days, p<0.001), the duration of mucositis is 3.4 days. In addition, in data set [6] (same trial, placebo 46%), the “incidence of febrile neutropenia” value was 26%. The “mean days of febrile neutropenia” value in data set [6] (same trial, placebo 4.6 days) is 2.6 days. Besides, the “survival after TBI” value in data set [4] is given as at least 70%. Further, in the data set on non-irradiated dogs, the “effect on Peyer's patches in the ileum” value is “dramatic increase in the size and cellularity of Peyer's patches”; the “effect on villi in the jejunum” value was “dramatic increase in size of villi”.

Source of the values: patent US20200155571A1, “Topically Active Steroids for Use in Radiation and Chemotherapeutics Injury” (Soligenix, Inc., priority 2008, published 2020).
